Laboratory results taken from PMC5356841.

Experiments:
[1] = molecular target: individual catalytic domain of human MT5-MMP (human)
[2] = molecular target: individual catalytic domain of human MT4-MMP (human)
[3] = molecular target: individual catalytic domain of human MT3-MMP (human)
[4] = molecular target: individual catalytic domain of human MT2-MMP (human)
[5] = molecular target: individual catalytic domain of human MT6-MMP (human)
individual catalytic domain of human MT6-MMP (human), sequence (Q9NPA2 22-562): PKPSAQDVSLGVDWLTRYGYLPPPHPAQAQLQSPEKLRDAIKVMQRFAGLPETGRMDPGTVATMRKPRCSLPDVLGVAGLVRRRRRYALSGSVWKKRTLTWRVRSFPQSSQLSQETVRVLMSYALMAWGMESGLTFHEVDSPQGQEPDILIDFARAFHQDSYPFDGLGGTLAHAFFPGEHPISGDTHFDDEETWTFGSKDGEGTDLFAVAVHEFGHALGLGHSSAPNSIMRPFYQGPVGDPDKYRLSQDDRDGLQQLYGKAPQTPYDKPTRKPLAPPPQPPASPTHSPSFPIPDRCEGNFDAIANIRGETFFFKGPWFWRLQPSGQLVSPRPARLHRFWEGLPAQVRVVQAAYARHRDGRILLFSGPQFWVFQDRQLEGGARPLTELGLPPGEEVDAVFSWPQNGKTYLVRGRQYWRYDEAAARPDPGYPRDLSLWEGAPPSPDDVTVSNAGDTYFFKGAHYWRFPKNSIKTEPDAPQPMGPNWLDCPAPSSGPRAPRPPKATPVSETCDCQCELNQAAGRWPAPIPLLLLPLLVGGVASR

individual catalytic domain of human MT5-MMP (human), sequence (Q9Y5R2 53-645): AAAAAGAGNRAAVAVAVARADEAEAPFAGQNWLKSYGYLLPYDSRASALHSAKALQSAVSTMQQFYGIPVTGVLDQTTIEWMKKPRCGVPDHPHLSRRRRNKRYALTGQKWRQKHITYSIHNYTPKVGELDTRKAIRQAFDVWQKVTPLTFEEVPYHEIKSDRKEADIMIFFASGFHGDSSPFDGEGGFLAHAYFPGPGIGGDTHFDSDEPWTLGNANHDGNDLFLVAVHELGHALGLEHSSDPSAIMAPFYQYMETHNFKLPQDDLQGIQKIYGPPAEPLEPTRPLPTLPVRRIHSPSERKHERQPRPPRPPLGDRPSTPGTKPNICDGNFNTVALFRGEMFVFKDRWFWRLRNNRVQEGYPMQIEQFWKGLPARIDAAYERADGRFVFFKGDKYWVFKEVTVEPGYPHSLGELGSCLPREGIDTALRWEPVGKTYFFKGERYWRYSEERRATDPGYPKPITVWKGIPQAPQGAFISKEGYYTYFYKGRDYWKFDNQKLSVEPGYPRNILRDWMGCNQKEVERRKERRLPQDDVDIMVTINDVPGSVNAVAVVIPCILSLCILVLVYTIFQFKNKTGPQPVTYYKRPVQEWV
individual catalytic domain of human MT4-MMP (human), sequence (Q9ULZ9 36-603): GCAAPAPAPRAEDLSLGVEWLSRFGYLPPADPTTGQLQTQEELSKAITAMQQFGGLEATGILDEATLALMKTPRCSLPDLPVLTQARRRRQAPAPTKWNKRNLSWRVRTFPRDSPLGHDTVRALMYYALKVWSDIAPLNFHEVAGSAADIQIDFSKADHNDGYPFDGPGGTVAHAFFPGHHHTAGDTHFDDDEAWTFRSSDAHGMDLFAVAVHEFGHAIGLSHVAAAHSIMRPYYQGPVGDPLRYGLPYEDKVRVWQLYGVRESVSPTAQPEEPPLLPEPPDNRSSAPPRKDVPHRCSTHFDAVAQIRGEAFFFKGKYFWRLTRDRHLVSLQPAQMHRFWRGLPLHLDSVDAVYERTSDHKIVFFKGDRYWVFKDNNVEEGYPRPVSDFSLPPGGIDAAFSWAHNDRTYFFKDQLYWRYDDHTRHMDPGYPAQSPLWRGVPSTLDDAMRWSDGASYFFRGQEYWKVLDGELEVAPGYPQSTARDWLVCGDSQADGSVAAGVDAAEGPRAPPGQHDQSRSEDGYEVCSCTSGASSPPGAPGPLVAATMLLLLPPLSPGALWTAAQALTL
individual catalytic domain of human MT3-MMP (human), sequence (P51512 32-607): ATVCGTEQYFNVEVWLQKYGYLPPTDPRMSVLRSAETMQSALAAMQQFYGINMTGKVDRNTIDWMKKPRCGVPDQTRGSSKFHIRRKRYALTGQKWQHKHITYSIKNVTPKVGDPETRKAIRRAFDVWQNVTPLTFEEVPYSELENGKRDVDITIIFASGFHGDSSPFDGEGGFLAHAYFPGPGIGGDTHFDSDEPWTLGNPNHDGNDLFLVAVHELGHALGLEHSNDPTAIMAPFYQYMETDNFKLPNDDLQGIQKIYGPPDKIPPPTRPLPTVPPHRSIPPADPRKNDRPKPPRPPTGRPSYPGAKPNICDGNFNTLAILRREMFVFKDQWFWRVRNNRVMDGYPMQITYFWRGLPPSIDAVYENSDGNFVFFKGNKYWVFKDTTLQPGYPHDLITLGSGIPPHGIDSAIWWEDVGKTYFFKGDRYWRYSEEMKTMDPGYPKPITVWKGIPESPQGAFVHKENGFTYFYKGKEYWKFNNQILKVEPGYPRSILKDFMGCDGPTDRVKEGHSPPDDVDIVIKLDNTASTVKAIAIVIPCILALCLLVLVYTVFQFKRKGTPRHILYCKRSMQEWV
individual catalytic domain of human MT2-MMP (human), sequence (P51511 42-669): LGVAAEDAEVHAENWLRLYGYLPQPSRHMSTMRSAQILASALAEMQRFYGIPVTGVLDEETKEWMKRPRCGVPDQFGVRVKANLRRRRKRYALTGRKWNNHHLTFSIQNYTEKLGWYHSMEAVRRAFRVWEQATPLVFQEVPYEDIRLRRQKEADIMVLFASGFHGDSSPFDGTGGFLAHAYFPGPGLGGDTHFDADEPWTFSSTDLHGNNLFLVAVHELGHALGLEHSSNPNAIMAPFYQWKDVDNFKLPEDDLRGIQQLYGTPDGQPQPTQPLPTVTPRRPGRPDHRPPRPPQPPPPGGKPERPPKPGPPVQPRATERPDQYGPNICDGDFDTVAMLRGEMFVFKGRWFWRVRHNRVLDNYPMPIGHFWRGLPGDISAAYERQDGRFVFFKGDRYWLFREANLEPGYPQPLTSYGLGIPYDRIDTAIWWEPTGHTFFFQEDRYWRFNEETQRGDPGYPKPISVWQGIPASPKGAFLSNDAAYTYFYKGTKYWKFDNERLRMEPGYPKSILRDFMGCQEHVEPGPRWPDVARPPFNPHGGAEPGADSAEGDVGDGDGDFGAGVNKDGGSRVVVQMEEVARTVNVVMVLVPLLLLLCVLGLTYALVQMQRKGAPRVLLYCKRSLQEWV

B1: 3A2 Fab (Fab, V domains shown)
VH: EVQLVESGGGLVQPGGSLRLSCAASGFNLSSSSMHWVRQAPGKGLEWVASIYPSYSYTYYADSVKGRFTISADTSKNTAYLQMNSLRAEDTAVYYCARVKLQKDKSHQWIRNLVATPYGRYVMDYWGQGTLVTVSS
VL: DIQMTQSPSSLSASVGDRVTITCRASQSVSSAVAWYQQKPGKAPKLLIYSASSLYSGVPSRFSGSRSGTDFTLTISSLQPEDFATYYCQQYGYPITFGQGTKVEIK
Q: How did the IC50 of inhibition of the CAT of MT5-MMP (5 nM), cleavage of Mca-PLGL-Dpa-AR-NH2 (1 uM); 3A2 Fab 0-5,000 nM [1] turn out when B1 was run?
A: 0.425 µM

Q: And the IC50 of inhibition of the CAT of MT4-MMP (5 nM), cleavage of Mca-PLGL-Dpa-AR-NH2 (1 uM); 3A2 Fab 0-5,000 nM [2]?
A: > 5 µM

Q: And the IC50 of inhibition of the CAT of MT3-MMP (5 nM), cleavage of Mca-PLGL-Dpa-AR-NH2 (1 uM); 3A2 Fab 0-5,000 nM [3]?
A: 0.335 µM

Q: What about the IC50 of inhibition of the CAT of MT2-MMP (5 nM), cleavage of Mca-PLGL-Dpa-AR-NH2 (1 uM); 3A2 Fab 0-5,000 nM [4] of the same binder?
A: 1.8 µM

Q: And the IC50 of inhibition of the CAT of MT6-MMP (5 nM), cleavage of Mca-PLGL-Dpa-AR-NH2 (1 uM); 3A2 Fab 0-5,000 nM [5]?
A: > 5 µM
